{"source": "the Human Domainome abundance scans (Beltran et al. 2025)", "parents": {"B1": {"name": "Ankyrin-1, residues 1405 to 1484; numbered along this chain, P16157 (parent)", "chain": "MKMAVISEHLGLSWAELARELQFSVEDINRIRVENPNSLLEQSVALLNLWVIREGQNANMENLYTALQSIDRGEIVNMLE"}}, "note": "± gives the uncertainty stated by the source.", "data": [{"variants_of": "B1", "experiment": "abundance fitness (aPCA) (normalised: wild type 0, dead -1); higher = more abundant; growth selection in yeast, the domain comes from the species named", "settings": "Homo sapiens", "values": [{"variant": "E61R", "abundance fitness": "-0.316 ± 0.16"}, {"variant": "E61V", "abundance fitness": "-0.523 ± 0.5"}, {"variant": "N62E", "abundance fitness": "-0.197 ± 0.17"}, {"variant": "N62T", "abundance fitness": "0.211 ± 0.1"}, {"variant": "N62A", "abundance fitness": "-0.045 ± 0.079"}, {"variant": "N62Y", "abundance fitness": "0.002 ± 0.11"}, {"variant": "L46D", "abundance fitness": "-1.1 ± 0.41"}, {"variant": "L46P", "abundance fitness": "-0.891 ± 0.23"}, {"variant": "L46S", "abundance fitness": "-0.832 ± 0.14"}, {"variant": "L46G", "abundance fitness": "-0.953 ± 0.13"}, {"variant": "S69C", "abundance fitness": "0.056 ± 0.095"}, {"variant": "S69V", "abundance fitness": "0.029 ± 0.044"}, {"variant": "S69Q", "abundance fitness": "-0.137 ± 0.11"}, {"variant": "S69M", "abundance fitness": "-0.133 ± 0.089"}, {"variant": "M3G", "abundance fitness": "-0.533 ± 0.073"}, {"variant": "M3V", "abundance fitness": "-0.024 ± 0.053"}, {"variant": "M3Q", "abundance fitness": "-0.197 ± 0.099"}, {"variant": "M3Y", "abundance fitness": "-0.708 ± 0.18"}, {"variant": "Q56Y", "abundance fitness": "-0.147 ± 0.17"}, {"variant": "Q56D", "abundance fitness": "-0.139 ± 0.19"}, {"variant": "Q56N", "abundance fitness": "-0.191 ± 0.47"}, {"variant": "Q56A", "abundance fitness": "-0.113 ± 0.091"}, {"variant": "Q56R", "abundance fitness": "-0.02 ± 0.046"}, {"variant": "G73Q", "abundance fitness": "-0.141 ± 0.066"}, {"variant": "G73T", "abundance fitness": "-0.306 ± 0.054"}, {"variant": "G73L", "abundance fitness": "-0.399 ± 0.036"}, {"variant": "G73R", "abundance fitness": "-0.297 ± 0.04"}, {"variant": "I70A", "abundance fitness": "-0.808 ± 0.16"}, {"variant": "I70C", "abundance fitness": "-0.384 ± 0.094"}, {"variant": "I70W", "abundance fitness": "-0.99 ± 0.28"}, {"variant": "I70Y", "abundance fitness": "-0.152 ± 0.25"}, {"variant": "I70D", "abundance fitness": "-0.881 ± 0.26"}, {"variant": "H9R", "abundance fitness": "-0.33 ± 0.083"}, {"variant": "H9S", "abundance fitness": "-0.868 ± 0.39"}, {"variant": "H9P", "abundance fitness": "-0.666 ± 0.18"}, {"variant": "H9F", "abundance fitness": "-0.249 ± 0.18"}, {"variant": "H9A", "abundance fitness": "-0.429 ± 0.14"}, {"variant": "H9L", "abundance fitness": "-0.438 ± 0.1"}, {"variant": "M60A", "abundance fitness": "-0.343 ± 0.16"}, {"variant": "M60S", "abundance fitness": "-0.28 ± 0.14"}, {"variant": "M60R", "abundance fitness": "-0.704 ± 0.15"}, {"variant": "S24L", "abundance fitness": "-0.776 ± 0.12"}, {"variant": "S24T", "abundance fitness": "-0.191 ± 0.088"}, {"variant": "S24C", "abundance fitness": "-0.39 ± 0.17"}, {"variant": "S24E", "abundance fitness": "-0.067 ± 0.069"}, {"variant": "S24R", "abundance fitness": "-0.25 ± 0.051"}, {"variant": "S24G", "abundance fitness": "-0.23 ± 0.054"}, {"variant": "S24Q", "abundance fitness": "-0.195 ± 0.088"}, {"variant": "V33W", "abundance fitness": "-0.073 ± 0.07"}, {"variant": "V33M", "abundance fitness": "-0.034 ± 0.076"}, {"variant": "V33K", "abundance fitness": "-0.215 ± 0.14"}, {"variant": "Q42G", "abundance fitness": "-0.923 ± 0.12"}, {"variant": "Q42L", "abundance fitness": "-0.863 ± 0.11"}, {"variant": "Q42W", "abundance fitness": "-0.794 ± 0.17"}, {"variant": "Q68E", "abundance fitness": "-0.102 ± 0.082"}, {"variant": "Q68R", "abundance fitness": "-0.038 ± 0.05"}, {"variant": "Q68H", "abundance fitness": "-0.029 ± 0.24"}, {"variant": "Q68K", "abundance fitness": "0.169 ± 0.14"}, {"variant": "N77L", "abundance fitness": "-0.043 ± 0.07"}, {"variant": "N77T", "abundance fitness": "0.041 ± 0.082"}, {"variant": "N77K", "abundance fitness": "0.03 ± 0.12"}, {"variant": "N77Y", "abundance fitness": "-0.215 ± 0.16"}, {"variant": "N77A", "abundance fitness": "0.084 ± 0.061"}, {"variant": "G55K", "abundance fitness": "-0.666 ± 0.44"}, {"variant": "G55F", "abundance fitness": "-0.765 ± 0.33"}, {"variant": "G55D", "abundance fitness": "-0.1 ± 0.1"}, {"variant": "G55P", "abundance fitness": "-0.69 ± 0.41"}, {"variant": "G55T", "abundance fitness": "-0.133 ± 0.15"}, {"variant": "R19N", "abundance fitness": "-0.32 ± 0.23"}, {"variant": "R19W", "abundance fitness": "-0.268 ± 0.09"}, {"variant": "R19L", "abundance fitness": "0.025 ± 0.053"}, {"variant": "R19Y", "abundance fitness": "-0.434 ± 0.17"}, {"variant": "R19F", "abundance fitness": "0.067 ± 0.057"}, {"variant": "R19V", "abundance fitness": "-0.072 ± 0.057"}, {"variant": "L21S", "abundance fitness": "-0.645 ± 0.15"}, {"variant": "L21R", "abundance fitness": "-0.923 ± 0.26"}, {"variant": "R32F", "abundance fitness": "0.069 ± 0.098"}, {"variant": "R32C", "abundance fitness": "-0.13 ± 0.19"}, {"variant": "R32I", "abundance fitness": "-0.124 ± 0.071"}, {"variant": "L67F", "abundance fitness": "-0.788 ± 0.23"}, {"variant": "L67Q", "abundance fitness": "-0.809 ± 0.26"}, {"variant": "L67A", "abundance fitness": "-0.895 ± 0.22"}, {"variant": "L67H", "abundance fitness": "-0.911 ± 0.34"}, {"variant": "L67R", "abundance fitness": "-0.803 ± 0.097"}, {"variant": "V51A", "abundance fitness": "-0.072 ± 0.079"}, {"variant": "V51H", "abundance fitness": "0.026 ± 0.1"}, {"variant": "V51Q", "abundance fitness": "0.176 ± 0.074"}, {"variant": "G11F", "abundance fitness": "-0.581 ± 0.16"}, {"variant": "G11M", "abundance fitness": "-0.447 ± 0.13"}, {"variant": "G11C", "abundance fitness": "-0.737 ± 0.2"}, {"variant": "G11T", "abundance fitness": "-0.371 ± 0.1"}, {"variant": "G11Y", "abundance fitness": "-0.481 ± 0.28"}, {"variant": "G11I", "abundance fitness": "-0.726 ± 0.23"}, {"variant": "S7R", "abundance fitness": "-0.504 ± 0.059"}, {"variant": "S7Q", "abundance fitness": "-0.389 ± 0.12"}, {"variant": "S7I", "abundance fitness": "-0.396 ± 0.1"}, {"variant": "S7T", "abundance fitness": "-0.226 ± 0.1"}, {"variant": "S7G", "abundance fitness": "-0.176 ± 0.04"}, {"variant": "Y64I", "abundance fitness": "-0.302 ± 0.13"}, {"variant": "Y64R", "abundance fitness": "-0.407 ± 0.056"}, {"variant": "Y64V", "abundance fitness": "-0.225 ± 0.061"}, {"variant": "Y64T", "abundance fitness": "-0.049 ± 0.1"}, {"variant": "Y64M", "abundance fitness": "-0.185 ± 0.11"}, {"variant": "Y64A", "abundance fitness": "-0.494 ± 0.12"}, {"variant": "N48E", "abundance fitness": "-0.458 ± 0.11"}, {"variant": "N48T", "abundance fitness": "-0.544 ± 0.11"}, {"variant": "N48Q", "abundance fitness": "-0.205 ± 0.15"}, {"variant": "N48A", "abundance fitness": "-0.415 ± 0.064"}, {"variant": "N48H", "abundance fitness": "-0.042 ± 0.086"}, {"variant": "N48G", "abundance fitness": "-0.236 ± 0.055"}, {"variant": "N48D", "abundance fitness": "0.154 ± 0.081"}, {"variant": "E80R", "abundance fitness": "-0.17 ± 0.13"}, {"variant": "E80C", "abundance fitness": "-0.092 ± 0.099"}, {"variant": "E80L", "abundance fitness": "-0.329 ± 0.12"}, {"variant": "E80F", "abundance fitness": "-0.023 ± 0.1"}, {"variant": "L12K", "abundance fitness": "-0.133 ± 0.2"}, {"variant": "L12V", "abundance fitness": "0.029 ± 0.087"}, {"variant": "L12T", "abundance fitness": "0.063 ± 0.18"}, {"variant": "E41A", "abundance fitness": "-0.113 ± 0.057"}, {"variant": "E41N", "abundance fitness": "0.162 ± 0.13"}, {"variant": "E41W", "abundance fitness": "-0.563 ± 0.1"}, {"variant": "E41G", "abundance fitness": "-0.086 ± 0.035"}, {"variant": "E41P", "abundance fitness": "-0.574 ± 0.19"}, {"variant": "A15C", "abundance fitness": "-0.238 ± 0.13"}, {"variant": "A15K", "abundance fitness": "-0.251 ± 0.22"}, {"variant": "A15Y", "abundance fitness": "0.128 ± 0.17"}, {"variant": "A15E", "abundance fitness": "0.04 ± 0.076"}, {"variant": "A15L", "abundance fitness": "0.076 ± 0.049"}, {"variant": "E16Q", "abundance fitness": "-0.081 ± 0.11"}, {"variant": "E16M", "abundance fitness": "-0.207 ± 0.1"}, {"variant": "E16L", "abundance fitness": "-0.162 ± 0.054"}, {"variant": "E16A", "abundance fitness": "-0.041 ± 0.059"}, {"variant": "L39Y", "abundance fitness": "0.004 ± 0.13"}, {"variant": "L39E", "abundance fitness": "0.105 ± 0.09"}, {"variant": "L39A", "abundance fitness": "-0.103 ± 0.069"}, {"variant": "L39M", "abundance fitness": "-0.075 ± 0.15"}, {"variant": "L39H", "abundance fitness": "-0.42 ± 0.26"}, {"variant": "L39Q", "abundance fitness": "0.019 ± 0.17"}, {"variant": "I31A", "abundance fitness": "-0.855 ± 0.15"}, {"variant": "R30E", "abundance fitness": "-0.292 ± 0.13"}, {"variant": "R30Y", "abundance fitness": "-0.298 ± 0.16"}, {"variant": "Q22L", "abundance fitness": "-0.126 ± 0.052"}, {"variant": "Q22M", "abundance fitness": "-0.008 ± 0.048"}, {"variant": "Q22R", "abundance fitness": "-0.093 ± 0.051"}, {"variant": "L79C", "abundance fitness": "0.045 ± 0.13"}, {"variant": "L79P", "abundance fitness": "-0.3 ± 0.12"}, {"variant": "L79Q", "abundance fitness": "-0.115 ± 0.11"}, {"variant": "L79S", "abundance fitness": "0.014 ± 0.052"}, {"variant": "L79Y", "abundance fitness": "-0.319 ± 0.14"}, {"variant": "N59L", "abundance fitness": "-0.2 ± 0.1"}, {"variant": "N59R", "abundance fitness": "0.034 ± 0.053"}, {"variant": "N59C", "abundance fitness": "-0.222 ± 0.12"}, {"variant": "N59S", "abundance fitness": "0.059 ± 0.062"}, {"variant": "N59H", "abundance fitness": "-0.376 ± 0.28"}, {"variant": "N59T", "abundance fitness": "-0.338 ± 0.16"}, {"variant": "N59V", "abundance fitness": "-0.078 ± 0.046"}, {"variant": "E54Q", "abundance fitness": "-0.118 ± 0.039"}, {"variant": "E54L", "abundance fitness": "-0.567 ± 0.076"}, {"variant": "N57R", "abundance fitness": "-0.191 ± 0.11"}, {"variant": "N57G", "abundance fitness": "0.017 ± 0.058"}, {"variant": "N57I", "abundance fitness": "-0.636 ± 0.47"}, {"variant": "T65S", "abundance fitness": "0.001 ± 0.046"}, {"variant": "T65Q", "abundance fitness": "0.016 ± 0.043"}, {"variant": "T65G", "abundance fitness": "-0.045 ± 0.043"}, {"variant": "T65I", "abundance fitness": "-0.209 ± 0.14"}, {"variant": "T65P", "abundance fitness": "0.095 ± 0.065"}, {"variant": "T65W", "abundance fitness": "-0.291 ± 0.083"}]}]}
